These results are taken from US20100209945A1.

This assay has as its target the different types of antibodies (different animal originated antibodies of Example 2). Description: SPR (Biacore 3000), hybrid on CM-5 chip, antibody in solution. In general terms: In SPR one partner is held on a chip, and binding of the other changes the refractive index at the surface.

For RTYRTYRTYRTYKKKG (C-terminal NH(CH2CH2O)nCH2CH2CO-Cys-NH2 (PEG linker and cysteine amide)), the SPR reaction value is under 200 RU.
